Measurements as given in US20210063414A1, “METHODS FOR PREVENTING AND/OR TREATING BONE LOSS CONDITIONS BY MODULATING IRISIN” (Dana-Farber Cancer Institute, Inc., priority 2018, published 2021).
Several values for one entry are separate records, joined by “and”; a condition that tells them apart may be missing. Equal entries are not always repeated.

Test system: MLO-Y4 cells
Assay: Anti-apoptosis assay: H2O2-induced cell death of MLO-Y4 osteocytes
Assay type: cell-based
Procedure: Cells were stained with Hoechst 33342 and Eth-D1, and analyzed to determine the percentage of cell death. *: p<0.05, ***: p<0.001 vs 0.3 mM H2O2 treated condition. […] MLO-Y4 cells were seeded and incubated until 60% cell density. The cells were incubated with Freestyle293 medium for 4 hours and were treated with indicated concentrations of irisin for 16 hours. Sclerostin mRNA level was analyzed by qRT-PCR. Cyclophilin was used as a control house-keeping gene.
Certain materials and methods were used to generate the results described herein. […] Cells were stained with Hoechst 33342 (ThermoFisher Scientific, catalog number H3570) and Eth-D1 (ThermoFisher Scientific, catalog number E1169) and analyzed to determine the percentage of cell death using ImageJ. […] Co-precipitated irisin was analyzed by immunoblot analysis against flag tag (Sigma Aldrich, catalog number A8592). The data shown in FIGS. 5A and 5B were generated from MLO-Y4 cells treated and analyzed as in the experiments used to generate the data shown in FIG. 2D, except that pre-treatment of 100 nM RGDS (FIG. 5A) or echistatin (R & D Systems Inc., catalog number 3202/100U) (FIG. 5B) for 10 minutes was performed before irisin treatment. […] Sclerostin mRNA level was analyzed by qPCR (FIG. 7A). […] Epididymal fats were collected, RNAs were extracted from the tissues, and mRNA levels of the indicated genes were analyzed by qPCR. […]

B1: irisin: secreted cleaved form of FNDC5; recombinant human/mouse irisin with C-terminal his tag produced in HEK293 cells (protein)
chain: DSPSAPVNVTVRHLKANSAVVSWDVLEDEVVIGFAISQQKKDVRMLRFIQEVNTTTRSCALWDLEEDTEYIVHVQAISIQGQSPASEPVLFKTPREAEKMASKNKDEVTMKE
modifications: left off: small tags and cut ends
notes: secreted cleaved form of FNDC5; recombinant human/mouse irisin with C-terminal his tag produced in HEK293 cells
Which “concentration as low as which irisin prevented osteocyte cell death” value (MLO-Y4, 0.3 mM H2O2, dose dependent) does the source give for B1 here?
Its value is 1 ng/ml and 70 pM.

And the “concentrations at which irisin reduced hydrogen peroxide-induced apoptosis” value (MLO-Y4, hydrogen peroxide)?
The value was 1 to 500 ng/mL.
